# Measurements from IntAct's records for PubMed 22916032.
# B1: U3 small nucleolar RNA-associated protein 4 homolog (Homo sapiens), Q969X6 (parent)
# chain: MGEFKVHRVRFFNYVPSGIRCVAYNNQSNRLAVSRTDGTVEIYNLSANYFQEKFFPGHESRATEALCWAEGQRLFSAGLNGEIMEYDLQALNIKYAMDAFGGPIWSMAASPSGSQLLVGCEDGSVKLFQITPDKIQFERNFDRQKSRILSLSWHPSGTHIAAGSIDYISVFDVKSGSAVHKMIVDRQYMGVSKRKCIVWGVAFLSDGTIISVDSAGKVQFWDSATGTLVKSHLIANADVQSIAVADQEDSFVVGTAEGTVFHFQLVPVTSNSSEKQWVRTKPFQHHTHDVRTVAHSPTALISGGTDTHLVFRPLMEKVEVKNYDAALRKITFPHRCLISCSKKRQLLLFQFAHHLELWRLGSTVATGKNGDTLPLSKNADHLLHLKTKGPENIICSCISPCGSWIAYSTVSRFFLYRLNYEHDNISLKRVSKMPAFLRSALQILFSEDSTKLFVASNQGALHIVQLSGGSFKHLHAFQPQSGTVEAMCLLAVSPDGNWLAASGTSAGVHVYNVKQLKLHCTVPAYNFPVTAMAIAPNTNNLVIAHSDQQVFEYSIPDKQYTDWSRTVQKQGFHHLWLQRDTPITHISFHPKRPMHILLHDAYMFCIIDKSLPLPNDKTLLYNPFPPTNESDVIRRRTAHAFKISKIYKPLLFMDLLDERTLVAVERPLDDIIAQLPPPIKKKKFGT
# partner: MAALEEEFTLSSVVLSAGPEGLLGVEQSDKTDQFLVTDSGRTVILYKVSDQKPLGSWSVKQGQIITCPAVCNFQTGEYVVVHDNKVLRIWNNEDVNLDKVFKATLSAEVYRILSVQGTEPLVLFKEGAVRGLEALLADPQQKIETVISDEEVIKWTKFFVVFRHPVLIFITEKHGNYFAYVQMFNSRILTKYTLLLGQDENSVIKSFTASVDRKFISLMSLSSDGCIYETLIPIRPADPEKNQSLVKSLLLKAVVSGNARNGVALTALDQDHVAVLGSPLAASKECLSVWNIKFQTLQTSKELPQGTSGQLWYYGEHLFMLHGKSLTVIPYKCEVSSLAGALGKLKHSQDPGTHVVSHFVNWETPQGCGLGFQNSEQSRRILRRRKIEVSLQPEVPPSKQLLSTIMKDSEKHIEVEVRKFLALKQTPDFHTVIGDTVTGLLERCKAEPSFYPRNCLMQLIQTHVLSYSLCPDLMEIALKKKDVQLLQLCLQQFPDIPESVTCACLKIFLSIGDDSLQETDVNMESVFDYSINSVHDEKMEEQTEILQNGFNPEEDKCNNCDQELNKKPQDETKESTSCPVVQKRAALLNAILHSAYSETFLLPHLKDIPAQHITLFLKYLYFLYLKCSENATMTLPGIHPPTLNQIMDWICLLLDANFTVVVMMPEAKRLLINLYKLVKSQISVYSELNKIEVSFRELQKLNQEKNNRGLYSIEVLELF
# Variants of: B1
# Conditions: with nol11_human NOL11, Q9H8H0
row,effect of a mutation on the interaction,Variant
1,decreasing interaction strength,R565W
